Results as given in patent US20230044381A1 (GUANGDONG FEIPENG PHARMACEUTICAL, published 2023).

T1: Human ICOS-hFc (human, UniProt Q9Y6W8 21-140)
T1 construct: Bought (ACRO); also called ICOS (ACRO)
T1 sequence (looked up): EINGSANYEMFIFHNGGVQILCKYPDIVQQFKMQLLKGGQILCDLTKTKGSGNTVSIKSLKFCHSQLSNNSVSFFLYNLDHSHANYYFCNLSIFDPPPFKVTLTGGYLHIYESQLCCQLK

T2: Human CTLA4-hFc (human, UniProt P16410 37-162)
T2 construct: Bought (ACRO); also called CTLA-4 (ACRO)
T2 sequence (looked up): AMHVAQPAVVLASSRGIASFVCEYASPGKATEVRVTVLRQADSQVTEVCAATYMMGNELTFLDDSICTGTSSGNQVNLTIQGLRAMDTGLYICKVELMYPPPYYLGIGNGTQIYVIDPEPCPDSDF

T3: mouse PD1 on CHO cells (CHO-mousePD1) (mouse, UniProt Q02242 25-288)
T3 construct: whole, on cells; also called CHO-mPD1
T3 sequence (looked up): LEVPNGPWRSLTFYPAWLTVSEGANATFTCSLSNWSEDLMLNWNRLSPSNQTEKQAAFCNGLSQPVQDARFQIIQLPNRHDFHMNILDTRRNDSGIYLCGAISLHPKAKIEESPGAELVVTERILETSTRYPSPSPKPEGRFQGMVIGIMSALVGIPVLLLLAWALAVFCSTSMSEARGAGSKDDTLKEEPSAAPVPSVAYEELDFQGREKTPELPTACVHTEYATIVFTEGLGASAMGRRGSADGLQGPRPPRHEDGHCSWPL

B1: PD-1-76-C2 (antibody, V domains shown)
VH: QIQLVQSGPELKKPGETVKISCKASGYTFTNYGMNWVKQAPGKGLKWMGWINTHTGEPTYADDFKGRFAFSLETSASTAYLQIKNLKNEDVATYFCTKEGEGIGFAYWGQGTLVTVSA
VL: DVLMTQTPLSLPVSLGDQASISCRSSQSIVYSNGKTYLEWYLQKPGQSPKLLIYKVSNRFSGVPDRFSGSGSGTDFTLKISRVEAEDLGVYYCFQGSHVPNTFGGGTKLEIKR
notes: Mouse monoclonal antibody from a hybridoma; also called PD-76-C2; PD-1-76-02
B2: PD-1-97-C2 (antibody, V domains shown)
VH: EVKLVESGGGLVKPGGSLKLSCAASGFTFSSYGMSWIRQTPEKRLEWVATISGGGRDSYYPDSMKGRFAISRDNAKNNLYLQMSSLRSEDTALYYCTRQLGPAWFAYWGQGTLVTVSA
VL: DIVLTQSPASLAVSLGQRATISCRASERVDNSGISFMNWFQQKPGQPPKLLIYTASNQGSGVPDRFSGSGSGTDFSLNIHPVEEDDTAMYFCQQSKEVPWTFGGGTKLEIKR
notes: Mouse monoclonal antibody from a hybridoma; also called hybridoma clone 97
B3: PD-1-112-C2 (antibody, V domains shown)
VH: QVQLQQPGAELVKPGASVKLSCKASGYTFTTYYMYWVKQRPGQGLEWIGGINPSNGGTNFNEKFKSKATLTVDKSSSTAYMQLSSLTSEDSAVYYCTRRDSNYDGGFDYWGQGTTLTVSS
VL: DIVLTQSPASLAVSLGQRATISCRASKSVSTSGYSYMHWYQQKPGQPPKLLIYLAYHLESGVPARFSGSGSGTDFTLNIHPVEEEDAATYYCQHSWELPITFGSGTKLEIKR
notes: Mouse monoclonal antibody from a hybridoma; also called hybridoma clone 112

molecular target: T1, Human ICOS-hFc; experiment: ELISA, antigen coated at 1 µg/ml
Description: (§1) To verify the specificity of the antibody binding to PD-1, the binding assay of anti-PD-1 mouse monoclonal antibody with four different CD28 family member proteins was conducted. […] Anti-mouse IgG coupled with peroxidase (HRP) was used as a secondary antibody (Sigma). The color was developed by TMB, and after reaction termination, the absorbance was read by a microplate reader.

Binder	binding result
B1	no binding (tested: 10 µg/ml)
B2	no binding (tested: 10 µg/ml)
B3	no binding (tested: 10 µg/ml)

molecular target: T2, Human CTLA4-hFc; experiment: ELISA, antigen coated at 1 µg/ml
Description: as §1

Binder	binding result
B1	no binding (tested: 10 µg/ml)
B2	no binding (tested: 10 µg/ml)
B3	no binding (tested: 10 µg/ml)

molecular target: T4, Human CD28-hFc (human, UniProt P10747 19-152); experiment: ELISA, antigen coated at 1 µg/ml
T4 construct: Bought (ACRO); also called CD28 (ACRO)
T4 sequence (P10747 19-152): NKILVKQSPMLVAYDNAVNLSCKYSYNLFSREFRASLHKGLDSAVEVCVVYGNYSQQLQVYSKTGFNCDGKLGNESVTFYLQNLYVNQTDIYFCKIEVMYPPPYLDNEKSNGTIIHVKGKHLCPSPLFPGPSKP
Description: as §1

Binder	binding result
B1	no binding (tested: 10 µg/ml)
B2	no binding (tested: 10 µg/ml)
B3	no binding (tested: 10 µg/ml)

molecular target: T3, mouse PD1 on CHO cells (CHO-mousePD1); experiment: flow cytometry on CHO-mousePD1 cells
Description: (§2) In order to evaluate binding of the anti-PD-1 mouse monoclonal antibody to CHO-hPD1, 2×10⁵ CHO-hPD1 cells and the anti-PD-1 mouse monoclonal antibody that diluted in a concentration gradient (the initial concentration was […], 3-fold serial dilution) were added to a 96-well plate. then it was incubated at 4° C. for 30 minutes. After the cells were washed once with a buffer (PBS containing 3% bovine serum albumin (BSA)), PE-labeled anti-mouse IgG(Fc) Ab (Biolegend) fluorescent secondary antibody was added, it was incubated at 4° C. for another 30 minutes. the cells were washed once with the buffer and resuspended in PBS, and then cell suspension was analyzed through flow cytometry by CytoFlex (Beckman flow cytometer), the amount of the antibody bound to the cells was measured according to the mean fluorescence intensity (MFI); the same method was used to evaluate binding of anti-PD-1 mouse monoclonal antibody to a CHO-cyno cell, and a CHO-mousePD1 (sometimes abbreviated as “CHO-mPD1” in the present invention) cell.

Binder	binding result
B1	no binding
B2	no binding
B3	no binding

molecular target: T5, human PD-1 on the cell surface (CHO-hPD1 cells; PHA-activated human PBMC) (human, UniProt Q15116 25-288); experiment: flow cytometry on CHO-hPD1 cells
T5 construct: whole, on cells; the assay field tells which; also called CHO-PD1
T5 sequence (Q15116 25-288): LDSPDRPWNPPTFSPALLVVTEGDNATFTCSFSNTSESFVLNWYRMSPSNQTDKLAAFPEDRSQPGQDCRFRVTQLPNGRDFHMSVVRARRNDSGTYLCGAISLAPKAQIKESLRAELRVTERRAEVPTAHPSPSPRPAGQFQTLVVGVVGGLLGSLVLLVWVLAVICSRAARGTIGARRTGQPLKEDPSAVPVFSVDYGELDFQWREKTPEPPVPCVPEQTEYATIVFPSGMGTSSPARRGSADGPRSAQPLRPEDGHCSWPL
Description: as §2

Binder	EC50 [nM]
B1	0.583
B2	0.745
B3	0.739

molecular target: T6, monkey PD1 on CHO cells (CHO-cynoPD1) (monkey); experiment: flow cytometry on CHO-cynoPD1 cells
T6 construct: whole, on cells
Description: as §2

Binder	EC50 [nM]
B1	0.576
B2	0.578
B3	0.463

molecular target: T5, human PD-1 on the cell surface …; experiment: flow cytometry on PHA-activated human PBMC
Description: After PBMC was obtained from fresh human peripheral blood by a lymphatic separation fluid gradient centrifugation method, the density was adjusted to 1×10⁶ cells/ml and then inoculated into T75. At the same time, PHA-L (Sigma) at a final concentration of 1 μg/ml was added to stimulate lymphocyte proliferation. After standing in an incubator supplied with 37° C. and 5% CO₂ for 3 days, cell suspension was taken out and centrifuged to remove the supernatant. Cells were resuspended in a buffer (PBS containing 3% BSA), and added into a 96-well U-shaped plate at a density of 2*10⁵ cells/well. And then the anti-PD1 antibody that prepared for a total of 10 concentration gradients (started from 30 μg/ml, diluted in a 3-fold gradient) was added. After incubation at 4° C. for 30 minutes, the plate was centrifuged at 300 g for 5 minutes, cells were washed once with the buffer, A PE-labeled goat anti-human IgG fluorescent antibody (Biolegend) was added, and incubated at 4° C. for 30 minutes; after incubation, the cells were washed once by centrifugation resuspended in PBS, and analyzed by a CytoFlex flow cytometer, to detect the amount of the antibody bound to PBMC.

Binder	EC50 [nM]
B1	0.02
B2	1.03
B3	0.109

molecular target: T1, Human ICOS-hFc; experiment: ELISA, antigen coated at 1 µg/ml, antibody 10 µg/ml
Description: as §1

Binder	OD value [OD]
B1	0.076
B2	0.0636
B3	0.062

molecular target: T2, Human CTLA4-hFc; experiment: as above
Description: as §1

Binder	OD value [OD]
B1	0.146
B2	0.129
B3	0.131

molecular target: T7, Human PD-1-hFc (human, UniProt Q15116 25-167); experiment: as above
T7 construct: Bought (ACRO); also called PD-1 (ACRO)
T7 sequence (Q15116 25-167): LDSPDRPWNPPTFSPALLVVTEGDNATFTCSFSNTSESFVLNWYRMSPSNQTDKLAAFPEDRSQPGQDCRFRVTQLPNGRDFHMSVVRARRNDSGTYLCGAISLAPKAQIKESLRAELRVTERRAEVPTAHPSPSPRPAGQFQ
Description: as §1

Binder	OD value [OD]
B1	2.46
B2	2.37
B3	2.12

molecular target: T4, Human CD28-hFc; experiment: as above
Description: as §1

Binder	OD value [OD]
B1	0.0616
B2	0.0606
B3	0.0625

molecular target: T8, PD-1-his (ACRO) recombinant protein (UniProt Q15116 25-167); experiment: BLI (ForteBio Octet), PD-1-his loaded on HIS1K sensor, antibody in solution
T8 construct: Bought (ACRO); loaded on a HIS1K biosensor
T8 sequence (Q15116 25-167 limits assumed): as the sequence (Q15116 25-167) above

Binder	Kd [nM]	koff [s⁻¹]	kon [M⁻¹ s⁻¹]
B1	< 0.001	< 1e-07	771000
B2	< 0.001	< 1e-07	468000
B3	0.0435	3.18e-05	732000

molecular target: T5, human PD-1 on the cell surface …; experiment: flow cytometry, blocking of PD-L1-hFc (3 µg/ml) on CHO-hPD1 cells, mode 1 (ligand added first)
Description: (§3) The ability of the anti-PD-1 mouse monoclonal antibody to block the binding of the ligand to CHO-hPD1 cells was analyzed by a flow cytometer.
(§4) The plate was centrifuged at 300 g for 5 minutes, cells were washed once with a buffer, a PE-labeled goat anti-human IgG fluorescent antibody (Biolegend) was added, and incubated at 4° C. for 30 minutes. After the cells were washed once by centrifugation, the cells were resuspended in PBS, and then analyzed by a Cyto Flex flow cytometer, to detect the amount of the ligand protein bound to the cells, and the IC₅₀ value of the PD-1 antibody blocking was calculated.

Binder	IC50 [nM]
B1	2.28
B2	2.22
B3	2.57

molecular target: T5, human PD-1 on the cell surface …; experiment: flow cytometry, blocking of PD-L2-hFc (3 µg/ml) on CHO-hPD1 cells, mode 1 (ligand added first)
Description: as §3, §4

Binder	IC50 [nM]
B1	4.67
B2	7.54
B3	4.61

molecular target: T5, human PD-1 on the cell surface …; experiment: flow cytometry, blocking of PD-L1-hFc (3 µg/ml) on CHO-hPD1 cells, mode 2 (antibody added first)
Description: as §3, §4

Binder	IC50 [nM]
B1	1.4
B2	1.62
B3	1.55

molecular target: T5, human PD-1 on the cell surface …; experiment: flow cytometry, blocking of PD-L2-hFc (3 µg/ml) on CHO-hPD1 cells, mode 2 (antibody added first)
Description: as §3, §4

Binder	IC50 [nM]
B1	3.11
B2	3.49
B3	3.73
